Article PMC9915621
Like-named read-outs stand apart in the source and are kept apart here.

How the values were obtained:
Assay in all cases: EMSA
PlzA WT [1] = molecular target: T1, PlzA WT (Borrelia burgdorferi B31, UniProt O51675 1-261)
T1 sequence: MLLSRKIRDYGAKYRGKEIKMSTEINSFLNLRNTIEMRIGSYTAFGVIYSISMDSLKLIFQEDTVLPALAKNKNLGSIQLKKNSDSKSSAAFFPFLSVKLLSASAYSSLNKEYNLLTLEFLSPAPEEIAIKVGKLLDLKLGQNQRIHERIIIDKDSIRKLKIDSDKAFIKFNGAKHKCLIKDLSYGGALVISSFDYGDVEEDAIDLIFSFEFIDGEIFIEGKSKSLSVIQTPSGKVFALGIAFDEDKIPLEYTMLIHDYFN

PlzA WT [2] = molecular target: T1, PlzA WT; remark: listed apart in the source
PlzA RD-RD [3] = molecular target: T2, PlzA RD-RD (Borrelia burgdorferi B31, UniProt O51675 1-261, R145D;R149D)
T2 sequence: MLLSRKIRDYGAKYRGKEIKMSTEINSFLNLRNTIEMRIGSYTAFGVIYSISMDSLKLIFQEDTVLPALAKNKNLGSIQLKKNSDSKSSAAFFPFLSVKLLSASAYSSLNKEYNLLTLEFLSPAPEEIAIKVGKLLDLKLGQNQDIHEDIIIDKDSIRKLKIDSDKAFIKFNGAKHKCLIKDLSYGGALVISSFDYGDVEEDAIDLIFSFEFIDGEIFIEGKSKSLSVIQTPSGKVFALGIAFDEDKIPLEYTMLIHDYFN

PlzA CTD = molecular target: T3, PlzA CTD (Borrelia burgdorferi B31, UniProt O51675 142-261)
T3 sequence: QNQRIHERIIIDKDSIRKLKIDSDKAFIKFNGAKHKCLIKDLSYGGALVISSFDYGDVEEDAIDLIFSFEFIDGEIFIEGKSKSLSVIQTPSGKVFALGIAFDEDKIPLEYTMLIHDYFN

PlzA WT [4] = molecular target: T1, PlzA WT; remark: listed apart in the source
PlzA WT [5] = molecular target: T1, PlzA WT; remark: listed apart in the source
PlzA WT [6] = molecular target: T1, PlzA WT; remark: listed apart in the source
PlzA RD-RD [7] = molecular target: T2, PlzA RD-RD; remark: listed apart in the source

With AUAAUUUUAAUAAGGCUUUUAUUAGAAAAAUUAAU (ssRNA) [glpFKD(UTR) RNA] as the binder, how does the Kd (PlzA WT [1]) read?
Its Kd is 0.95 µM.

And the Kd (PlzA WT [2])?
Its Kd is 4.14 µM.

Does AUAAUUUUAAUAAGGCUUUUAUUAGAAAAAUUAAU (ssRNA) [glpFKD(UTR) RNA] bind (PlzA RD-RD [3])?
Result: no binding

Does AUAAUUUUAAUAAGGCUUUUAUUAGAAAAAUUAAU (ssRNA) [glpFKD(UTR) RNA] bind (PlzA CTD)?
Result: no binding

B1: glpFKD(-7/+35) (dsDNA)
DNA 1: ATTAAATATAATTTTAATAAGGCTTTTATTAGAAAAATTAAT
DNA 2: ATTAATTTTTCTAATAAAAGCCTTATTAAAATTATATTTAAT
Which results are given for B1?
Kd (PlzA WT [4]): 2.81 µM; Kd (PlzA WT [5]): 1.33 µM; Kd (PlzA WT [6]): 1.25 µM; Kd (PlzA WT [1]): 1.09 µM; binding result (PlzA RD-RD [7]): no binding; Kd (PlzA WT [2]): 4.22 µM; binding result (PlzA CTD): no binding

For ATTAAATATAATTTTAATAAGGCTTTTATTAGAAAAATTAAT (ssDNA) [ssglpF], which Kd (PlzA WT [1]) is on record?
Its Kd is 4.42 µM.
